From the PETadex activity labels (doi:10.1007/s12010-013-0219-x)

What was measured:
pNPB [1] = experiment: Proxy for plastic degradation [Relative activity]
pNPB [2] = experiment: Proxy for plastic degradation [kcat/Km (catalytic efficiency)] (µM⁻¹s⁻¹); settings: pH 8
pNPB [3] = experiment: Proxy for plastic degradation [p-nitrophenol (pNP) release] (% relative activity); settings: pH 8

Protein	Proxy for plastic degradation (pNPB [1]; pH 5) [%]	Proxy for plastic degradation (pNPB [1]; pH 6) [%]	Proxy for plastic degradation (pNPB [1]; pH 6.8) [%]	Proxy for plastic degradation (pNPB [1]; pH 7.5) [%]	Proxy for plastic degradation (pNPB [1]; pH 9) [%]	Proxy for plastic degradation (pNPB [2])	Proxy for plastic degradation (pNPB [3]; 25 °C)	Proxy for plastic degradation (pNPB [3]; 30 °C)	Proxy for plastic degradation (pNPB [3]; 37 °C)	Proxy for plastic degradation (pNPB [3]; 40 °C)	Proxy for plastic degradation (pNPB [3]; 45 °C)	Proxy for plastic degradation (pNPB [3]; 50 °C)	Proxy for plastic degradation (pNPB [3]; 55 °C)	Proxy for plastic degradation (pNPB [3]; 60 °C)	Proxy for plastic degradation (pNPB [3]; 70 °C)	Proxy for plastic degradation (pNPB [3]; 80 °C)	Proxy for plastic degradation (pNPB [3]; 15 h)	Proxy for plastic degradation (pNPB [3]; 30 h)	Proxy for plastic degradation (pNPB [3]; 40 h)	further results
unnamed (protein) MAVMTPRRERSSLLSRALQVTAAAATALVTAVSLAAPAHAANPYERGPNPTDALLEASSGPFSVSEENVSRLSASGFGGGTIYYPRENNTYGAVAISPGYTGTEASIAWLGERIASHGFVVITIDTITTLDQPDSRAEQLNAALNHMINRASSTVRSRIDSSRLAVMGHSMGGGGTLRLASQRPDLKAAIPLTPWHLNKNWSSVTVPTLIIGADLDTIAPVATHAKPFYNSLPSSISKAYLELDGATHFAPNIPNKIIGKYSVAWLKRFVDNDTRYTQFLCPGPRDGLFGEVEEYRSTCPF	30	59	75	92	75	2.84	29	35.5	51	68.5	80.5	93.5	100	91.5	79	67	93	47	38	Proxy for plastic degradation (pNPB [1]; pH 8): 100%; Proxy for plastic degradation (pNPB [1]; pH 8, 25 °C): 29%; Proxy for plastic degradation (pNPB [1]; pH 8, 30 °C): 35%; Proxy for plastic degradation (pNPB [1]; pH 8, 37 °C): 50%; Proxy for plastic degradation (pNPB [1]; pH 8, 40 °C): 69%; Proxy for plastic degradation (pNPB [1]; pH 8, 45 °C): 80%; Proxy for plastic degradation (pNPB [1]; pH 8, 50 °C): 93%; Proxy for plastic degradation (pNPB [1]; pH 8, 55 °C): 100%; Proxy for plastic degradation (pNPB [1]; pH 8, 60 °C): 92%; Proxy for plastic degradation (pNPB [1]; pH 8, 70 °C): 78%; Proxy for plastic degradation (pNPB [1]; pH 8, 80 °C): 65%
unnamed (protein) MPPHAARPGPAQNRRGRAMAVITPRRERSSLLSRALRFTAAAATALVTAVSLAAPAHAANPYERGPNPTDALLEARSGPFSVSEERASRFGADGFGGGTIYYPRENNTYGAVAISPGYTGTQASVAWLGERIASHGFVVITIDTNTTLDQPDSRARQLNAALDYMINDASSAVRSRIDSSRLAVMGHSMGGGGTLRLASQRPDLKAAIPLTPWHLNKNWSSVRVPTLIIGADLDTIAPVLTHARPFYNSLPTSISKAYLELDGATHFAPNIPNKIIGKYSVAWLKRFVDNDTRYTQFLCPGPRDGLFGEVEEYRSTCPF	35	60	75	90	75	1.35	31	37.5	45	70.5	75	95.5	100	93.5	74	67.5	98	50	40	Proxy for plastic degradation (pNPB [3]; 0 h): 100
